Data on 34 molecules can be found in patent US20230414780A1 (VECT HORUS, published 2023).

First the molecules themselves.
B1: B8^V2 (VHH)
VHH: EVQLVESGGGVVQPGGSLRLSCAASGEIFSINFMRWYGQAPGKQREWVAGFTRDGSTNYPDSAKGRFTISRDNAKNTVYLQIDSLKPEDTAVYYCYMLDTWGQGTQVTVSS
B2: B8^V5 (VHH)
VHH: B1 VHH with G38R, Q44I
B3: B8^V7 (VHH)
VHH: B1 VHH with G38R, S56Y
B4: B8^V11 (VHH)
VHH: B1 VHH with G26D, G38R
B5: B8^V8 (VHH)
VHH: B1 VHH with G38R, T57L
B6: B8^V14 (VHH)
VHH: B1 VHH with G38R, D54L
B7: B8^V9 (VHH)
VHH: B1 VHH with G38R, T57K
B8: B8^V6 (VHH)
VHH: B1 VHH with G38R, S56F
B9: B8^V4 (VHH)
VHH: B1 VHH with G38R, G42I
B10: C5^h16 (VHH)
VHH: EVQLVESGGGLVQPGGSLRLSCAASGTDFSINFIRWYRQAPGKGLEFVAGFTATGNTNYADSVKGRFTISRDNSKNTLYLQMNSLRAEDTAVYYCYMLDKWGQGTLVTVSS
B11: C5^V20 (VHH)
VHH: EVQLVESGGGVVQPGGSLKLSCVASGHDFSINFIRWYRQAPGKQREFVAGFTATGNTNYADSMKGRFTISRDNTKNAVYLQIDSLKPEDTAVYYCYMLDKWGQGTQVTVSS
B12: C5^h11 (VHH)
VHH: B10 VHH with L11V, Y37V, F47W, V63M, S74T, A87P, L106Q
B13: C5^h23 (VHH)
VHH: B10 VHH with L11V, Y37V, G44Q, L45R, S74A, A87P, L106Q
B14: VHH A14 (C5^V14) (VHH)
VHH: B11 VHH with H27T, T57S
B15: C5^h15 (VHH)
VHH: B10 VHH with L11V, A23V, Y37V, F47W, S74T, N83D, A87P, L106Q
B16: C5^h24 (VHH)
VHH: B10 VHH with L11V, V63M, S74A, A87P, L106Q
B17: C5^V21 (VHH)
VHH: B11 VHH with H27T, F51W
B18: C5^h13 (VHH)
VHH: B10 VHH with L11V, S74T, A87P, L106Q
B19: C5^h26 (VHH)
VHH: B10 VHH with L11V, F47W, S74A, M82I, N83D, A87P, L106Q
B20: C5^h17 (VHH)
VHH: B11 VHH with H27T, Y37V, Q44G, R45L, V78L, K86R
B21: C5^V22 (VHH)
VHH: B11 VHH with H27T, F51Y
B22: C5^h12 (VHH)
VHH: B10 VHH with L11V, S74A, M82I, N83D, A87P, L106Q
B23: VHH A21 (C5^h2) (VHH)
VHH: B10 VHH with L11V, Y37V, G44Q, L45R, S74A, A87P, L106Q
B24: C5^h14 (VHH)
VHH: B10 VHH with L11V, Y37V, F47W, S74T, T77A, A87P, L106Q
B25: C5^V26 (VHH)
VHH: B11 VHH with H27T, M97V
B26: C5^V24 (VHH)
VHH: B11 VHH with H27T, Y96W
B27: C5^V28 (VHH)
VHH: B11 VHH with H27A, T52S
B28: C5^h8 (VHH)
VHH: B10 VHH with L11V, Y37V, F47W, S74T, M82I, N83D, A87P, L106Q
B29: VHH A10 (C5^V10) (VHH)
VHH: B11 VHH with H27T, I31L
B30: C5^V25 (VHH)
VHH: B11 VHH with H27T, M97L
B31: C5^V23 (VHH)
VHH: B11 VHH with H27T, Y96H
B32: C5^h10 (VHH)
VHH: B10 VHH with L11V, R19K, Y37V, F47W, S74T, M82I, A87P, L106Q
B33: C5^h21 (VHH)
VHH: B10 VHH with L11V, S74A, R86K, A87P, L106Q
B34: VHH A24 (C5^h5) (VHH)
VHH: B10 VHH with L11V, Y37V, F47W, S74A, A87P, L106Q

Substitutions are numbered along the chain they refer to.

In one assay the target is T1, mouse transferrin receptor (mTfR) fused to EGFP, on CHO cells (mouse, UniProt Q62351 1-763).
T1 construct: whole, on cells; also called mouse TfR; CHO-mTfR-EGFP; not shown: EGFP
T1 sequence (Q62351 whole entry, the tested form may be a part): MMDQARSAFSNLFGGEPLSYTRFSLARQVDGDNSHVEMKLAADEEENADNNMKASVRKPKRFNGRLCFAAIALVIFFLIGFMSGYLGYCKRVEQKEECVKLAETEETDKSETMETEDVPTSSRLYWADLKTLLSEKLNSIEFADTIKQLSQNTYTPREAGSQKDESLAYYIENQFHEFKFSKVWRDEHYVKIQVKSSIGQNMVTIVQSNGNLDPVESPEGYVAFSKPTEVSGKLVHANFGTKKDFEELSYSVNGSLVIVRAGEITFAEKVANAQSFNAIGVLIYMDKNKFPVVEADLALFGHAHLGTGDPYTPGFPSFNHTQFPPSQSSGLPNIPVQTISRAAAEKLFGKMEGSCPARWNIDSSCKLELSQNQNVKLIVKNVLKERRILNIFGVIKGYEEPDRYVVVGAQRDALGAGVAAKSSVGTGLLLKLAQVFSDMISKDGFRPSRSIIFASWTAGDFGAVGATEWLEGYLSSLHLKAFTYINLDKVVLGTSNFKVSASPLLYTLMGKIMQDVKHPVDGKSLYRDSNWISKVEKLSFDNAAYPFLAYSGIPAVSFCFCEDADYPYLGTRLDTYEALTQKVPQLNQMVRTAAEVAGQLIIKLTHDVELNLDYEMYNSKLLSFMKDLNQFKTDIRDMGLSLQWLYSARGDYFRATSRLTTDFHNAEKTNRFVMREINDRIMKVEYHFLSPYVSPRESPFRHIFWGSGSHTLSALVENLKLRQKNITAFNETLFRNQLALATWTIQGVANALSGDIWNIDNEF
The assay is described as follows: apparent Kd, flow cytometry, CHO cells. The protocol:
(§1) The binding properties of VHHs with affinity for the TfR from different species (i.e., human (h), mouse (m) and rhesus monkey (rh)) were tested using flow cytometry, and apparent affinities (Kd app) were determined. All experiments were performed in 96 well plates using 2×10⁵ cells/well, at 4° C. with shaking. CHO cell lines expressing the hTfR, mTfR or rhTfR fused to EGFP were saturated with PBS/BSA 2% solution during 30 min to avoid nonspecific binding, followed by incubation with purified VHHs at increasing concentrations for 1 hr. After one wash in PBS/BSA 2%, cells were incubated for 1 hr with an anti-6His tag antibody (mouse), washed twice with PBS/BSA 2%, and incubated for 1 hr with an Alexa647-conjugated anti-mouse secondary antibody. After two last washes in PBS/BSA 2%, cells were fixed by incubation for 15 min with PBS/PFA 2%, washed once with PBS and finally resuspended in PBS. Fluorescence levels were assessed using an Attune NxT flow cytometer (Thermo Fisher Scientific). Experimental data were fitted with GraphPad Prism® software using a nonlinear fit to determine the apparent Kd constants. […] Table 5 hereafter summarizes apparent Kd obtained for the tested VHHs.
On to B1, for which the Kd came to 0.2 nM.
The same measure, in the same setting: as for B2, the figure is 3.8 nM.
Regarding B3, the Kd came to 41 nM.
As for B4, the Kd was found to be 22 nM.
Regarding B5, the Kd was found to be 8.1 nM.
Same read-out and setting: with B6 the figure was 41 nM.
The same measure, in the same setting: as for B7, the figure is 31 nM; as for B8, 16 nM; as for B9, 0.6 nM.
Turning to B10, the Kd is 582 nM.
Regarding B11, the Kd was 125 nM.
Still for that read-out and setting: as for B12, the figure is 1370 nM; as for B13, 1540 nM.
On the same count and under the same terms, as for B14, the figure is 158 nM; as for B15, 452 nM.
Same read-out and setting: as for B16, the figure is 624 nM; as for B17, 120 nM.
Take B18: the Kd was determined as 554 nM.
Take B19: the Kd amounted to 675 nM.
The same measure, in the same setting: as for B20, the figure is 898 nM; as for B21, 131 nM; as for B22, 331 nM.
B23: the Kd came out at 225 nM.
For B24, the Kd was 164 nM.
Still for that read-out and setting: as for B25, the figure is 211 nM; as for B26, 218 nM; as for B27, 160 nM.
Still for that read-out and setting: as for B28, the figure is 656 nM; as for B29, 159 nM.
On the same count and under the same terms, with B30 the figure was 136 nM.
Turning to B31, the Kd was 254 nM.
Still for that read-out and setting: as for B32, the figure is 845 nM.
As for B33, the Kd was 600 nM.

The target of the next assay is T2, human transferrin receptor (hTfR) fused to EGFP, on CHO cells (human, UniProt P02786 1-760).
T2 construct: whole, on cells; also called human TfR; CHO-hTfR-EGFP; not shown: EGFP from pEGFP-C1 vector, fused to the N-terminal (intracellular) end of hTfR
T2 sequence (P02786 whole entry, the tested form may be a part): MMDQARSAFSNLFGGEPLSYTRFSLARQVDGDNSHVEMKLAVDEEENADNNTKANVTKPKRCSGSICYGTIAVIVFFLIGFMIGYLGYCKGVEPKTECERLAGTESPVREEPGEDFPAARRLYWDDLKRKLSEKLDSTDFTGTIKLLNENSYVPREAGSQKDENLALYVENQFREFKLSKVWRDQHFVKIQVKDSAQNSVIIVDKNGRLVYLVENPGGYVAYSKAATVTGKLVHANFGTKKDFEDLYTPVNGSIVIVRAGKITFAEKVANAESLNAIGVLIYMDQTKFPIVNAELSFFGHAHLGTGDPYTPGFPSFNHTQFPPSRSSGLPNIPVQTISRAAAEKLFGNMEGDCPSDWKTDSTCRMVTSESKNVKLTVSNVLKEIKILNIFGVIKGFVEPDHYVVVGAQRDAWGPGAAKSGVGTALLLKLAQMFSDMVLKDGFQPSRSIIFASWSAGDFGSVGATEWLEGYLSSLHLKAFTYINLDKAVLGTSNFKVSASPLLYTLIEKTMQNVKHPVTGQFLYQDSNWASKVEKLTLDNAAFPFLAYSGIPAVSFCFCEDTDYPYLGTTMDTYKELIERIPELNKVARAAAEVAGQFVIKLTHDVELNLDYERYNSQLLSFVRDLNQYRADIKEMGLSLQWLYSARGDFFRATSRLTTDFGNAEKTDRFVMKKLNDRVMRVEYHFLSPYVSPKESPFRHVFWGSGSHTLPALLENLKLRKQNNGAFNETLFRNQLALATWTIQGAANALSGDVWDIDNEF
The assay is described as follows: apparent Kd, flow cytometry, CHO cells. The protocol: as §1
Turning to B1, the Kd was 0.1 nM.
Still for that read-out and setting: as for B2, the figure is 2.3 nM; as for B3, 5.7 nM; as for B4, 4.6 nM.
The same measure, in the same setting: with B5 the figure was 2.5 nM; with B6, 4.8 nM; with B7, 2.8 nM.
Take B8: the Kd stood at 3.8 nM.
The same measure, in the same setting: with B9 the figure was 0.4 nM; with B34, 193 nM.
On to B10, for which the Kd stood at 8.1 nM.
Take B11: the Kd turned out to be 2.5 nM.
On the same count and under the same terms, as for B12, the figure is 1130 nM.
Take B13: the Kd worked out at 594 nM.
Same read-out and setting: with B14 the figure was 3.3 nM.
For the molecule B15, the Kd was 1090 nM.
As for B16, the Kd was determined as 4.1 nM.
Regarding B17, the Kd came out at 2.4 nM.
Same read-out and setting: with B18 the figure was 8.3 nM; with B19, 4 nM; with B20, 630 nM.
On to B21, for which the Kd worked out at 2.7 nM.
Still for that read-out and setting: with B22 the figure was 4.3 nM.
B23: the Kd came out at 267 nM.
The same measure, in the same setting: as for B24, the figure is 1100 nM.
With B25, the Kd worked out at 7.9 nM.
As for B26, the Kd came out at 4.3 nM.
The same measure, in the same setting: with B27 the figure was 3.3 nM; with B28, 987 nM; with B29, 3.4 nM.
The same measure, in the same setting: as for B30, the figure is 4.5 nM; as for B31, 4.5 nM.
Turning to B32, the Kd was 1070 nM.
As for B33, the Kd is 8.8 nM.

In the next assay the target is T3, rhesus monkey transferrin receptor (rhTfR) fused to EGFP, on CHO cells (rhesus monkey).
T3 construct: whole, on cells; also called rhesus monkey TfR
The assay is described as follows: apparent Kd, flow cytometry, CHO cells. The method, then: as §1
With B1, the Kd amounted to 0.1 nM.
Still for that read-out and setting: with B2 the figure was 2.1 nM.
The same measure, in the same setting: with B3 the figure was 2.6 nM; with B4, 2 nM.
Take B5: the Kd was found to be 2.1 nM.
Same read-out and setting: with B6 the figure was 1.9 nM; with B7, 2.4 nM.
Same read-out and setting: as for B8, the figure is 2.7 nM.
On the same count and under the same terms, with B9 the figure was 0.3 nM; with B10, 760 nM.
B11: the Kd came to 6.1 nM.
In the case of B12, the Kd came out at 1240 nM.
On the same count and under the same terms, as for B13, the figure is 2000 nM; as for B14, 3.9 nM; as for B16, 641 nM.
The same measure, in the same setting: as for B17, the figure is 8.2 nM.
On to B18, for which the Kd was 730 nM.
Still for that read-out and setting: as for B19, the figure is 656 nM; as for B21, 11 nM; as for B22, 361 nM.
Same read-out and setting: with B25 the figure was 335 nM; with B26, 564 nM; with B27, 371 nM.
Same read-out and setting: as for B29, the figure is 5.1 nM; as for B30, 429 nM.
On to B31, for which the Kd was determined as 353 nM.
Still for that read-out and setting: as for B33, the figure is 1010 nM.
